The values below come from patent US6495144.

Data set [1] has as its system CBF1 + EBNA2 GP320SR (CR6) GP320SR (Homo sapiens / Epstein-Barr virus). Description: EMSA. As to conditions: supershifted complex relative to wild-type. A general note: A gel shift assay detects complexes by their altered migration in electrophoresis.
Data set [2] deals with CBF1 + EBNA2 II307SR (CR5) II307SR (Homo sapiens / Epstein-Barr virus). Description: EMSA. As to conditions: supershifted complex relative to wild-type.
The subject of data set [3] is CBF1 + EBNA2 LGL389SRT (CR7) LGL389SRT (Homo sapiens / Epstein-Barr virus). Put plainly: EMSA. As to conditions: supershifted complex relative to wild-type.
The subject of data set [4] is CBF1 + EBNA2 PI326SR (CR6) PI326SR (Homo sapiens / Epstein-Barr virus). Description: EMSA. The following applies: supershifted complex relative to wild-type.
Data set [5] deals with CBF1 + EBNA2 SR360VD (PKC) SR360VD (Homo sapiens / Epstein-Barr virus). Description: EMSA. The following applies: supershifted complex relative to wild-type.
Data set [6] deals with CBF1 + EBNA2 WW323SR (CR6) WW323SR (Homo sapiens / Epstein-Barr virus). Description: EMSA. The following applies: no supershifted complex.
Data set [7] deals with CBF1 + EBNA2 del252-309,398-425 del252-309,del398-425 (Homo sapiens / Epstein-Barr virus). Put plainly: EMSA. The following applies: no supershifted complex.
Data set [8] deals with CBF1 + EBNA2 del252-366 del252-366 (Homo sapiens / Epstein-Barr virus). Description: EMSA. The following applies: no supershifted complex.
Data set [9] concerns CBF1 + EBNA2 del343-425 del343-425 (Homo sapiens / Epstein-Barr virus). Description: EMSA. The following applies: no stable supershifted complex; partially competed CBF1 complex.
Data set [10] has as its system CBF1 + EBNA2 del344-357 del344-357 (Homo sapiens / Epstein-Barr virus). Put plainly: EMSA. The following applies: supershifted complex relative to wild-type.
Data set [11] concerns CBF1 + EBNA2 del376-425 del376-425 (Homo sapiens / Epstein-Barr virus). Put plainly: EMSA. As to conditions: supershifted complex relative to wild-type.
Data set [12] relates to CBF1 + type A EBNA2 252-425 complex (Homo sapiens / Epstein-Barr virus). Description: EMSA. The following applies: supershifted EBNA2/CBF1 complex, reference; EBNA2 tethered through CBF1.
In data set [13] the target is CBF1/RBPJk (UniProt Q06330). Description: EMSA supershift with heparin-agarose purified CBF1 and Cp CBF1 site probe; phosphoimager, relative to wild-type EBNA2(252-425).
Sequence of CBF1/RBPJk (Q06330 whole entry, the tested form may be a part): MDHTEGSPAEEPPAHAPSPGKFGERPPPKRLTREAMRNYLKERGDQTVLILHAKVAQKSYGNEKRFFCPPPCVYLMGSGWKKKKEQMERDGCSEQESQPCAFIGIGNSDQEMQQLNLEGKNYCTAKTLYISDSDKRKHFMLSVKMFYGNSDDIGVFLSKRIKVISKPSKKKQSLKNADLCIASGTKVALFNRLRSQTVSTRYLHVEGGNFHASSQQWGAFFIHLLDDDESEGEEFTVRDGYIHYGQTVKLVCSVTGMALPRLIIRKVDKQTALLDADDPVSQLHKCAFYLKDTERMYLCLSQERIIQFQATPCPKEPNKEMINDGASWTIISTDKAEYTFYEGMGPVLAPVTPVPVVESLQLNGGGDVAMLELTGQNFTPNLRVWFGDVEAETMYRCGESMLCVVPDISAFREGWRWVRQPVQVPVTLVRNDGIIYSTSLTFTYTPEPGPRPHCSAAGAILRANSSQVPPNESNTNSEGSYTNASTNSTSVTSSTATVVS
Another data set addresses GAL4-CBF1 (KLV249AAA) (UniProt P04386). Put plainly: cell-based or functional assay.
The next data set addresses GAL4-CBF1 (wild-type) (UniProt P04386). Put plainly: cell-based or functional assay.
The target of a further data set is GAL4CBF1 (EEF233AAA) (UniProt P04386). Description: cell-based or functional assay.
Data set [14] addresses CBF1/RBPJk (UniProt Q06330). Put plainly: cell-based or functional assay.

Turning to Cp CBF1 binding site 30-bp probe, the binding signal in data set [1] was 90%; in data set [2] it was 20%; in data set [3], 50%; in data set [4], 5%; in [5], 60%; in data set [6], < 1%. Moreover, the binding signal is < 1% in data set [7]; < 1% in data set [8]; < 1% in [9]; 100% in [10]; 10% in data set [11]; 100% in data set [12].

Take “EBNA2 252-425 II307SR (CR5) (from UniProt P12978 252-425)”: the % Complex formation with CBF1/RBPJk [13] is 20%.

As to “EBNA2 252-425 del252-309,398-425 (from UniProt P12978 310-397)”, in the data set with CBF1/RBPJk [13], the % Complex formation was < 1%.

With “EBNA2 252-425 del252-366 (from UniProt P12978 367-425)”, the % Complex formation with CBF1/RBPJk [13] is < 1%.

On to “EBNA2 252-425 del343-425 (from UniProt P12978 252-342)”, for which the % Complex formation in the data set with CBF1/RBPJk [13] is < 1%.

Consider “EBNA2 252-425 del344-357 (from UniProt P12978 252-343; P12978 358-425)”, for which the % Complex formation in the data set with CBF1/RBPJk [13] stood at 100%.

On to “EBNA2 252-425 del376-425 (from UniProt P12978 252-375)”, for which the % Complex formation with CBF1/RBPJk [13] was found to be 10%.

Take “EBNA2 (effector of Table 2) (from UniProt P12978 1-487)”: in the data set with GAL4-CBF1 (KLV249AAA), the Relative CAT Activity (relative to CAT reporter alone) came out at 21.

In the case of “Notch1IC (from UniProt Q01705 1751-2531) (receptor)”, the Relative CAT Activity (relative to CAT reporter alone) came out at 1.3 with GAL4-CBF1 (KLV249AAA), 4.9 with GAL4-CBF1 (wild-type) and 4.2 with GAL4CBF1 (EEF233AAA).

As to “Notch2IC (from UniProt Q9QW30 1789-2471) (receptor)”, the Relative CAT Activity (relative to CAT reporter alone) in the data set with GAL4-CBF1 (KLV249AAA) is 1.3; in the data set with GAL4-CBF1 (wild-type), 5.7; with GAL4CBF1 (EEF233AAA), 4.5.

“full-length EBNA2 GP320SR (CR6) (from UniProt P12978 1-487)” returned a % Transactivation with CBF1/RBPJk [14] of 120%.

“full-length EBNA2 II307SR (CR5) (from UniProt P12978 1-487)” had a % Transactivation in the data set with CBF1/RBPJk [14] of 20%.

The substance “full-length EBNA2 LGL389SRT (CR7) (from UniProt P12978 1-487)” had a % Transactivation in the data set with CBF1/RBPJk [14] of 100%.

In the data set with CBF1/RBPJk [14], “full-length EBNA2 PI326SR (CR6) (from UniProt P12978 1-487)” gave a % Transactivation of 2% and a transactivation at the highest levels of effector DNA (Cp-CAT, DG75 cells) of 20%.

As to “full-length EBNA2 SR360VD (PKC) (from UniProt P12978 1-487)”, the % Transactivation in the data set with CBF1/RBPJk [14] came out at 110%.

“full-length EBNA2 WW323SR (CR6) (from UniProt P12978 1-487)”: the % Transactivation with CBF1/RBPJk [14] is 0%.

In the data set with CBF1/RBPJk [14], “full-length EBNA2 del344-357 (from UniProt P12978 1-487)” registered a % Transactivation of 150%.

In the data set with CBF1/RBPJk [14], “wild-type EBNA2 (full-length, type A) (from UniProt P12978 1-487)” had a % Transactivation of 100%.
